Results from paper PMC5954133, “Functional Characterization of a Small Alarmone Hydrolase in Corynebacterium glutamicum” (Frontiers in Microbiology, 2018).

B1: RelCg (Corynebacterium glutamicum ATCC 13032) (protein)
chain: MSLERNTQKSSMGVRSMSARLARSLTGNRVRTNPVLDPLLSIHRQFHPRADVQVLERAYDTAERLHDGVIRKSGDPYITHPLAVATIAAEIGMDTTTLVAALLHDTVEDTDYSLDDLTRDFGEEVARLVDGVTKLDKVALGAAAEAETIRKMIVAMSQDPRVLVIKVADRLHNMRTMRFLPPEKQAKKARQTLEVIAPLAHRLGMASVKWELEDLSFAILYPKKYEEIVRLVADRAPSRDRYLKEIIDQVTGGLRENNIAAEVLGRPKHYWSIYQKMIVRGRDFDDIFDLVGIRILVDNVNNCYAAIGVVHSLFNALPGRFKDYISAPRFGVYQSLHTTVMGPGGKPLEVQARTHDMHYNAEFGIAAHWRYKETKGSHSGEQAEVDQMAWMRQLLDWQKEAADPNEFLDSLRYDLTSKQIFVFTPKGDVVNLPVNSTPVDFAYAVHTEVGHRCIGAKINGKLVALETKLKSGDRVEVFTSKDQNAGPSRGWQEFVVSPRAKAKIRQWFAKERREEYLEAGRDALAAVIQRGGLPMHRLFTASSMKTVATELHYPDVDALYTAIGSGSVSAQHVVNRLMAIFGDEEDAEDALVARTPFSELVNSRATTESSTGILVEGSPDVMAKLAKCCMPVPGDEIFGFVTRGGGVSVHRTDCTNVEKLKEEPERIVSVSWASEGQGSVFSATLQLEALDRAGLLFELTRVINEQKVSVTAMNSHCSEDRVATVRFTFAVSDTKQLGSLMTQLRNAEGVFDVYRVTSGG
notes: full-length bifunctional RSH; expressed in E. coli ER2566
B2: RelHCg (Corynebacterium glutamicum ATCC 13032) (protein)
chain: MNTLSPRLRKAMNTAAWAHRHHVRKGGGIPYVSHLYSVMYLLASVTNDEDVLIAGLLHDTLEDVPEEYNSAQLEADFGPRVRELVEELTKQPLKSWKARADAYLLHLSAGASLEAVLISTADKLHNLMSILDDLEIHGEDLWQRFNAGKEQQIWWYSEVYQISLQRLGFNELNKQLGLCVEKLLKQSA
notes: full-length; expressed in E. coli ER2566

Assays:
Assay in all cases: HPLC-UV pyrophosphohydrolase assay, Eadie-Hofstee
Assay type in all cases: biochemical, Corynebacterium glutamicum
[1] = substrate: Nc1nc2c(ncn2[C@@H]2O[C@H](COP(=O)(O)OP(=O)(O)OP(=O)(O)O)[C@@H](OP(=O)(O)OP(=O)(O)O)[C@H]2O)c(=O)[nH]1; conditions: 1 mM MnCl2, 50 mM HEPES-Na pH 8.0, 200 mM NaCl, 30°C, substrate inhibition, approximate fit from lowest concentrations, only two data points, no error analysis
Source text: (§1) HPLC-UV pyrophosphohydrolase assay, Eadie-Hofstee on RelCg

[2] = substrate: Nc1nc2c(ncn2[C@@H]2O[C@H](COP(=O)(O)O)[C@@H](OP(=O)(O)OP(=O)(O)O)[C@H]2O)c(=O)[nH]1; conditions: 1 mM MnCl2, 50 mM HEPES-Na pH 8.0, 200 mM NaCl, 30°C, substrate inhibition, approximate fit from lowest concentrations
Source text: as §1

[3] = substrate: Nc1nc2c(ncn2[C@@H]2O[C@H](COP(=O)(O)OP(=O)(O)O)[C@@H](OP(=O)(O)OP(=O)(O)O)[C@H]2O)c(=O)[nH]1; conditions: 1 mM MnCl2, 50 mM HEPES-Na pH 8.0, 200 mM NaCl, 30°C, substrate inhibition, approximate fit from lowest concentrations
Source text: as §1

[4] = substrate: Nc1nc2c(ncn2[C@@H]2O[C@H](COP(=O)(O)OP(=O)(O)OP(=O)(O)O)[C@@H](OP(=O)(O)OP(=O)(O)O)[C@H]2O)c(=O)[nH]1; conditions: 1 mM MnCl2, 50 mM HEPES-Na pH 8.0, 200 mM NaCl, 30°C, substrate inhibition, approximate fit from lowest concentrations
Source text: (§2) HPLC-UV pyrophosphohydrolase assay, Eadie-Hofstee on […]

[5] = substrate: Nc1nc2c(ncn2[C@@H]2O[C@H](COP(=O)(O)O)[C@@H](OP(=O)(O)OP(=O)(O)O)[C@H]2O)c(=O)[nH]1; conditions: 1 mM MnCl2, 50 mM HEPES-Na pH 8.0, 200 mM NaCl, 30°C, substrate inhibition, approximate fit from lowest concentrations, only two data points, no error analysis
Source text: as §2

[6] = substrate: Nc1nc2c(ncn2[C@@H]2O[C@H](COP(=O)(O)OP(=O)(O)O)[C@@H](OP(=O)(O)OP(=O)(O)O)[C@H]2O)c(=O)[nH]1; conditions: 1 mM MnCl2, 50 mM HEPES-Na pH 8.0, 200 mM NaCl, 30°C, substrate inhibition, approximate fit from lowest concentrations; remark: listed apart in the source
Source text: as §2

Protein | Km [1] [µM] | kcat [1] [s⁻¹] | kcat/Km [1] [M⁻¹ s⁻¹] | Km [2] [µM] | kcat [2] [s⁻¹] | kcat/Km [2] [M⁻¹ s⁻¹] | Km [3] [µM] | kcat [3] [s⁻¹] | kcat/Km [3] [M⁻¹ s⁻¹] | Km [4] [µM] | kcat [4] [s⁻¹] | kcat/Km [4] [M⁻¹ s⁻¹] | Km [5] [µM] | kcat [5] [s⁻¹] | kcat/Km [5] [M⁻¹ s⁻¹] | Km [6] [µM] | kcat [6] [s⁻¹] | kcat/Km [6] [M⁻¹ s⁻¹]
B1 | 422 | 0.563 | 1340 | 734 ± 127 | 0.794 ± 0.071 | 1080 | 511 ± 10 | 0.296 ± 0.004 | 579 |  |  |  |  |  |  |  |  | 
B2 |  |  |  |  |  |  |  |  |  | 90 ± 11 | 0.09 ± 0.003 | 1010 | 144 | 0.294 | 2040 | 101 ± 7 | 0.502 ± 0.018 | 4970
